# Measurements published in US20140242093A1, “METHODS AND COMPOSITIONS FOR MODULATING THE INNATE IMMUNE RESPONSE AND/OR MYOGENESIS IN A MAMMALIAN SUBJECT” (FRED HUTCHINSON CANCER RESEARCH CENTER, priority 2011, published 2014).
# Tested on: control human primary myoblasts
# Assay: Expression microarray of primary myoblasts transduced with lentivirus carrying DUX4-fl, DUX4-s or GFP
# Experimental: Primary human myoblasts were collected and cultured as previously described (Snider et al., 2010). Primary myoblasts were maintained at or below 70% confluency for proliferation. For differentiation, cells were allowed to reach 95-100% confluency in growth medium. Once confluency was reached, the cells were changed to differentiation medium (F10 media supplemented with 1% horse serum, 10 μg/mL insulin, and 10 μg/mL transferrin, penicillin/streptomycin) and maintained for 4 days. Human RD cells were grown in DMEM in 10% bovine calf serum (Hyclone) and penicillin/streptomycin. The primary myoblasts were transduced with lentivirus carrying DUX-fl, DUX4- or GFP (MOI=15).
# Expression microarrays were performed on the transduced cells at 24 hours after transduction as follows. […] Samples were analyzed by Illumina Human Whole Genome microarrays. Probe intensities were corrected, normalized, and summarized by the Lumi package of Bioconductor (Du et al., 2008). Differentially expressed genes were identified by the LIMMA package of Bioconductor (Wettenhall and Smyth, 2004). Gene set enrichment analysis (GSEA) was performed using the Bioconductor GOstats package (Falcon and Gentleman, 2007).
molecule,measurement,setting,value
"DUX4-s: short splice form of DUX4 (SEQ ID NO:112), keeps the double-homeobox domains, lacks the C-terminal activation domain (protein, listed as Homo sapiens) MALPTPSDSTLPAEARGRGRRRRLVWTPSQSEALRACFERNPYPGIATRERLAQAIGIPEPRVQIWFQNERSRQLRQHRRESRPWPGRRGPPEGRRKRTAVTGSQTALLLRAFEKDRFPGIAAREELARETGLPESRIQIWFQNRRARHPGQGGRAPAQV",fc of MGLL (expression array),Refseq NM_007283.5,−0.003305
same,STAT1 expression fc,"Refseq NM_007315.2, cultured human skeletal muscle",0.8235
same,fc of LGALS9 (expression array),Refseq NM_009587.2,1.706
same,FRAT2 expression fc,Refseq NM_012083.2,−0.05118
same,fc of CDC42EP4 (expression array),Refseq NM_012121.4,0.06633
same,CHORDC1 expression fc,Refseq NM_012124.1,0.1261
same,CLDN14 expression fc,Refseq NM_012130.2,−0.3006
same,TFIP11 expression fc,Refseq NM_012143.2,0.1124
same,SIRT1 expression fc,Refseq NM_012238.3,0.2071
same,KCNH4 expression fc,Refseq NM_012285.1,−0.07365
same,BAMBI expression fc,Refseq NM_012342.2,0.1101
same,fc of TINF2 (expression array),Refseq NM_012461.1,0.3861
same,CD24 expression fc,Refseq NM_013230.2,−0.3586
same,ZNF214 expression fc,Refseq NM_013249.1,0.166
same,TBK1 fc,Refseq NM_013254.2,0.3572
same,MYLIP expression fc,Refseq NM_013262.3,−0.2969
same,TRA2A expression fc,Refseq NM_013293.3,−0.1095
same,fc of EEF2K (expression array),Refseq NM_013302.3,−0.5322
same,SERTAD1 expression fc,Refseq NM_013376.3,0.41
same,fc of SLC25A24 (expression array),Refseq NM_013386.3,1.103
same,fc of CLIC4 (expression array),Refseq NM_013943.1,1.228
same,BZW2 expression fc,Refseq NM_014038.1,−0.4003
same,LRP10 fc,Refseq NM_014045.3,0.4158
same,fc of FAM156A (expression array),Refseq NM_014138.3,−0.1365
same,SMARCAL1 fc,Refseq NM_014140.2,0.01669
same,CCDC59 expression fc,Refseq NM_014167.2,0.2509
same,fc of TDRD7 (expression array),Refseq NM_014290.1,1.072
same,DDX58 expression fc,"Refseq NM_014314.3, cultured human skeletal muscle",0.02114
same,PDSS1 expression fc,Refseq NM_014317.3,−0.07459
same,AMACR expression fc,Refseq NM_014324.4,0.08431
same,PPP1R15A expression fc,Refseq NM_014330.2,0.5668
same,TSPAN13 expression fc,Refseq NM_014399.3,−0.1469
same,APOBEC3C fc,Refseq NM_014508.2,0.5827
same,EVC expression fc,"Refseq NM_014556.2, cultured human skeletal muscle",−0.3857
same,SCHIP1 expression fc,"Refseq NM_014575.2, cultured human skeletal muscle",0.06263
same,SLC40A1 expression fc,Refseq NM_014585.3,−0.4239
same,CDR2L fc,Refseq NM_014603.1,−0.203
same,TAX1BP3 fc,Refseq NM_014604.2,−0.341
same,CTR9 expression fc,Refseq NM_014633.3,−0.0216
same,SLC25A44 expression fc,Refseq NM_014655.1,−0.07654
same,MTSS1 fc,Refseq NM_014751.4,−0.4145
same,LBA1 fc,Refseq NM_014831.1,0.4958
same,KIAA0020 expression fc,Refseq NM_014878.4,0.01783
same,ABLIM3 fc,Refseq NM_014945.2,0.01495
same,WDR47 expression fc,Refseq NM_014969.4,0.1401
same,ARC expression fc,Refseq NM_015193.3,−0.188
same,fc of DENND5A (expression array),Refseq NM_015213.2,0.07991
same,fc of FEM1B (expression array),Refseq NM_015322.3,1.026
same,fc of PANX1 (expression array),Refseq NM_015368.3,1.233
same,fc of AASDHPPT (expression array),Refseq NM_015423.2,−1.246
same,MTHFD1L fc,Refseq NM_015440.3,0.3955
same,C2orf32 fc,Refseq NM_015463.1,0.07813
same,PVRL3 expression fc,Refseq NM_015480.1,0.4473
same,NGDN expression fc,Refseq NM_015514.1,0.4088
same,fc of RRM2B (expression array),Refseq NM_015713.3,0.6161
same,MBD2 expression fc,Refseq NM_015832.3,−0.07679
same,fc of MBTPS2 (expression array),Refseq NM_015884.1,1.035
same,ARS2 expression fc,Refseq NM_015908.4,−0.2002
same,GSTK1 fc,Refseq NM_015917.1,0.0593
same,NOP58 expression fc,Refseq NM_015934.3,0.2243
same,CRLF3 expression fc,Refseq NM_015986.2,−0.1449
same,fc of TTC15 (expression array),Refseq NM_016030.5,−0.1193
same,ISOC1 expression fc,Refseq NM_016048.1,−0.6187
same,MED31 expression fc,Refseq NM_016060.2,0.3123
same,fc of TRPV2 (expression array),Refseq NM_016113.3,0.3116
same,CERCAM fc,Refseq NM_016174.3,−0.1838
same,DBR1 expression fc,Refseq NM_016216.2,0.2247
same,POLR3K expression fc,Refseq NM_016310.2,0.05873
same,HERC5 expression fc,"Refseq NM_016323.2, cultured human skeletal muscle",1.329
same,fc of CENPF (expression array),Refseq NM_016343.3,−1.028
same,CWC15 expression fc,Refseq NM_016403.3,0.09338
same,fc of TMEM9 (expression array),Refseq NM_016456.2,−0.2052
same,RAB6B expression fc,Refseq NM_016577.3,0.007069
same,SLC15A3 expression fc,"Refseq NM_016582.1, cultured human skeletal muscle",0.7755
same,FKBP11 fc,Refseq NM_016594.1,0.3006
same,ARMCX1 fc,Refseq NM_016608.1,−0.06031
same,C8orf55 fc,Refseq NM_016647.2,−0.387
same,HOXC13 fc,Refseq NM_017410.2,0.444
same,USP18 expression fc,"Refseq NM_017414.3, cultured human skeletal muscle",0.996
same,PARP14 expression fc,"Refseq NM_017554.1, cultured human skeletal muscle",0.5211
same,fc of SLC43A3 (expression array),Refseq NM_017611.2,0.4376
same,NOTCH1 fc,Refseq NM_017617.3,−0.6695
same,KIF21A expression fc,Refseq NM_017641.2,0.01529
same,fc of AHI1 (expression array),Refseq NM_017651.3,−1.054
same,SAMD9 expression fc,"Refseq NM_017654.2, cultured human skeletal muscle",1.399
same,FAM46C expression fc,Refseq NM_017709.3,−0.1289
same,RETSAT expression fc,"Refseq NM_017750.2, cultured human skeletal muscle",−0.1731
same,LYAR expression fc,Refseq NM_017816.1,0.000875
same,ZSCAN2 expression fc,Refseq NM_017894.4,−0.1999
same,HERC6 expression fc,"Refseq NM_017912.3, cultured human skeletal muscle",0.5237
same,PID1 fc,Refseq NM_017933.3,0.314
same,ZNHIT6 expression fc,Refseq NM_017953.2,0.3265
same,C14orf102 expression fc,Refseq NM_017970.2,0.1769
same,fc of WIPI1 (expression array),Refseq NM_017983.4,0.07989
same,RNF31 fc,Refseq NM_017999.4,0.05142
same,FRMD4A fc,Refseq NM_018027.3,−0.5453
same,FAM90A1 expression fc,Refseq NM_018088.3,0.02937
same,fc of RBM23 (expression array),Refseq NM_018107.4,−0.07729
same,PNPO fc,Refseq NM_018129.2,−0.02588
same,SEC61A2 expression fc,Refseq NM_018144.2,0.209
same,NADSYN1 fc,Refseq NM_018161.4,0.1182
same,TMEM140 expression fc,"Refseq NM_018295.2, cultured human skeletal muscle",1.003
same,BRIX1 expression fc,Refseq NM_018321.3,0.2991
same,DRAM1 fc,Refseq NM_018370.2,−0.3649
same,LSG1 expression fc,Refseq NM_018385.1,−0.06468
same,TBC1D2 fc,Refseq NM_018421.2,0.2926
same,RRN3 expression fc,Refseq NM_018427.3,0.1072
same,ZNF302 fc,Refseq NM_018443.2,−0.01005
same,fc of GLT8D1 (expression array),Refseq NM_018446.2,−0.2715
same,BEX1 fc,Refseq NM_018476.3,−0.2346
same,SLC35E3 fc,Refseq NM_018656.2,0.4619
same,DEFB103B expression fc,Refseq NM_018661.3,−0.03507
same,fc of SULF2 (expression array),Refseq NM_018837.2,−0.04817
same,PDE7B fc,Refseq NM_018945.3,−0.5695
same,NANS expression fc,Refseq NM_018946.2,−0.006607
same,POLR1B expression fc,Refseq NM_019014.3,−0.1313
same,CCNJ expression fc,Refseq NM_019084.2,0.07916
same,fc of HOXA5 (expression array),Refseq NM_019102.2,−0.1759
same,PNO1 expression fc,Refseq NM_020143.2,0.2485
same,KTELC1 fc,Refseq NM_020231.3,0.1564
same,C1orf63 expression fc,Refseq NM_020317.3,−0.139
same,ZMIZ1 fc,Refseq NM_020338.2,−0.03787
same,TRIM49 expression fc,Refseq NM_020358.2,−0.01703
same,LYRM1 fc,Refseq NM_020424.2,0.01491
same,SLC44A2 fc,Refseq NM_020428.2,−0.3457
same,PCBP3 fc,Refseq NM_020528.1,0.2113
same,NFKBIA expression fc,"Refseq NM_020529.1, cultured human skeletal muscle",0.2751
same,fc of RCN3 (expression array),Refseq NM_020650.2,−0.2021
same,PELI1 expression fc,Refseq NM_020651.2,0.1483
same,fc of FAM62B (expression array),Refseq NM_020728.1,−1.387
same,HECW2 fc,Refseq NM_020760.1,0.06016
same,ZNF319 fc,Refseq NM_020807.1,−0.08179
same,OSBPL8 expression fc,Refseq NM_020841.4,1.055
same,USP29 expression fc,Refseq NM_020903.2,−0.09046
same,fc of RNF213 (expression array),Refseq NM_020914.3,0.6308
same,fc of FAM160B1 (expression array),Refseq NM_020940.3,0.6282
same,fc of IGDCC4 (expression array),Refseq NM_020962.1,−0.5216
same,RFPL1 expression fc,Refseq NM_021026.2,0.3402
